# Results published in US20170119913A1.
# Tests used:
# [1] = biological target: neurotensin receptor 1 (NTR1), human, prepared from CHO cells recombinantly expressing the human receptor (human) (UniProt P30989)
# [2] = biological target: NTR1 on HT29 or NTR1-expressing HEK293 cells (UniProt P30989); test: cell-based or functional assay
# [3] = biological target: KV channel
# [4] = biological target: SKCa channel
# [5] = biological target: sst (non-selective), somatostatin receptor; test: Cerep ExpresSProfile radioligand competition binding, reference compound (agonist radioligand)
# NTR1 on HT29 or NTR1-expressing HEK293 cells, sequence (P30989 whole entry): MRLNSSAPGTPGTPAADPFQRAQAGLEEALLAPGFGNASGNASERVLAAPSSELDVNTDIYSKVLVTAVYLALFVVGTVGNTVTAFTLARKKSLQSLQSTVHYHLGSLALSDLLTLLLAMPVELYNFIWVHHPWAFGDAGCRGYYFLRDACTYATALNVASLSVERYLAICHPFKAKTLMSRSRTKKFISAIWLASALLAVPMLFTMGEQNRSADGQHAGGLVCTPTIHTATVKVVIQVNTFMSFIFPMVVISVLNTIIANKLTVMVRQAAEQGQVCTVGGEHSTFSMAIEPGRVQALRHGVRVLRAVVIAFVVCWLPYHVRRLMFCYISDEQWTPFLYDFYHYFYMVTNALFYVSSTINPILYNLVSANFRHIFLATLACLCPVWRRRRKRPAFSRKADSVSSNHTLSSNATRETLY
# neurotensin receptor 1 (NTR1), human, prepared from CHO cells recombinantly expressing the human receptor (human), sequence (P30989 whole entry): as above
Substance,IC50 [1] [nM],"Agonistic Effect EC50 [nM], functional Ca2+ mobilisation assay [2] [nM]","Antagonistic Effect IC50 [nM], functional Ca2+ mobilisation assay [2] [nM]",further results
1206-Glutar-Ttds3-Asn-Ala-Val-Pro-Asn-Leu-Arg-Gly-Asp-Leu-Gln-Val-Leu-Ala-Gln-Lys-Val-Ala-Arg-Thr-GA (peptide),9.9,> 50000,38,–
1206-Glutar-Ttds-Lys(1206-Glutar-Ttds)-Ttds-Asn-Ala-Val-Pro-Asn-Leu-Arg-Gly-Asp-Leu-Gln-Val-Leu-Ala- (peptide),7.5,> 50000,12,–
1206-Glutar-Ttds-Lys(DOTA)-Ttds-GABA-Asn-Ala-Val-Pro-Asn-Leu-Arg-Gly-Asp-Leu-Gln-Val-Leu-Ala-Gln-Lys (peptide),10,> 50000,18,–
alpha-dendrotoxin (from UniProt P00980 1-59) (peptide),–,–,–,Ki [3]: 0.2 nM
apamin (from UniProt P01500 28-45) (peptide),–,–,–,Ki [4]: 0.0084 nM
somatostatin-14 (from UniProt P61278 103-116) (peptide),–,–,–,Ki [5]: 0.11 nM
